Source: PMC10786891, “Massively parallel profiling of RNA-targeting CRISPR-Cas13d”
Substitutions are numbered along the chain they refer to. Names and notes keep the numbering of the source.

T1: EsCas13d, nuclease-dead (Eubacterium siraeum, UniProt B0MS50, R295A;H300A;R849A;H854A)
T1 sequence: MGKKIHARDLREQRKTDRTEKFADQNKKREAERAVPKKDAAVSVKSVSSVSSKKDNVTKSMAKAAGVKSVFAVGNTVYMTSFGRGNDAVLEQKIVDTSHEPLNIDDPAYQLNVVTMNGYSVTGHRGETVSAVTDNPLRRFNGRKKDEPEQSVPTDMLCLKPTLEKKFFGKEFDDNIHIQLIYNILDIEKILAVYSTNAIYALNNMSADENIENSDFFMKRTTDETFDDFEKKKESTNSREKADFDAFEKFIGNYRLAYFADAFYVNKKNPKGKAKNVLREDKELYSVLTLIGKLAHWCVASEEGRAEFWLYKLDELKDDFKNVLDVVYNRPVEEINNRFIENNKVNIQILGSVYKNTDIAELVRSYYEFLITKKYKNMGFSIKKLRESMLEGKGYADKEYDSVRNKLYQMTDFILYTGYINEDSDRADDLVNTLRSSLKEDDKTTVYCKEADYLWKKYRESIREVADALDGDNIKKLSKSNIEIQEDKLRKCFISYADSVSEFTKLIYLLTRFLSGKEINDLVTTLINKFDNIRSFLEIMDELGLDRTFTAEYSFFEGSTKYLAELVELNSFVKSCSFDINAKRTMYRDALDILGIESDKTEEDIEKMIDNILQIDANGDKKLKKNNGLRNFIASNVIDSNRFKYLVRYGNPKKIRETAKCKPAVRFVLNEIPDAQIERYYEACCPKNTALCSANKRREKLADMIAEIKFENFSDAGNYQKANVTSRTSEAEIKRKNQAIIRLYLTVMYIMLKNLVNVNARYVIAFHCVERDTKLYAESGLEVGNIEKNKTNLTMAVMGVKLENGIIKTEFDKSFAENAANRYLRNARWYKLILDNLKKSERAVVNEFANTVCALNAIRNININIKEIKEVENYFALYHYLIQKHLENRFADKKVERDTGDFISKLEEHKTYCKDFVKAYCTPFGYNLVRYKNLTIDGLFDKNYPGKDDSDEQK

B1: target 1 insG 3' of 21,insA 3' of 10 (mixed)
RNA 1: CACCCGUGCAAAAAUGCAGGGGUCUAAAACUGAGCGGAUAACCUCUCUAUGG
RNA 2: GGGAAUGGAUCCACAUCUACGAAUUCGUACCGAUAGAGAGGUUAAUCCGCUCACCGAGAUCGGAAGAGCACACGU
B2: target 1 A9U,U19C (mixed)
RNA 1: B1 RNA 1
RNA 2: GGGAAUGGAUCCACAUCUACGAAUUCGUACCACAGAGAGGUUUUCCGCUCACCGAGAUCGGAAGAGCACACGU
B3: target 1 G13C,C21U (mixed)
RNA 1: B1 RNA 1
RNA 2: B2 RNA 2 with C31U, C33U, G39C, U43A
B4: target 1 complement block 1-8 (mixed)
RNA 1: B1 RNA 1
RNA 2: GGGAAUGGAUCCACAUCUACGAAUUCGUACCAUAGAGAGGUUAAGGCGAGUCCGAGAUCGGAAGAGCACACGU
B5: target 1 U3A,G13C (mixed)
RNA 1: B1 RNA 1
RNA 2: B2 RNA 2 with C33U, G39C, U43A, U49A
B6: target 1 insC 3' of 16,insG 3' of 8 (mixed)
RNA 1: B1 RNA 1
RNA 2: B1 RNA 2 with G32A, A33U, U34A, A35G, G36A, A37C, A45U, U46G
B7: target 1 insC 3' of 22,insA 3' of 13 (mixed)
RNA 1: B1 RNA 1
RNA 2: B1 RNA 2 with G32C, G41A, U42G, A44U
B8: target 1 insA 3' of 22,insU 3' of 7 (mixed)
RNA 1: B1 RNA 1
RNA 2: B1 RNA 2 with C31A, G32C, A45U, U46C, C47U
B9: target 1 insG 3' of 22,insA 3' of 21 (mixed)
RNA 1: B1 RNA 1
RNA 2: GGGAAUGGAUCCACAUCUACGAAUUCGUACGCAAUAGAGAGGUUAUCCGCUCACCGAGAUCGGAAGAGCACACGU
B10: target 1 G15U,A18U (mixed)
RNA 1: B1 RNA 1
RNA 2: B2 RNA 2 with C33U, A34U, G37U, U43A
B11: target 1 insA 3' of 13,insG 3' of 8 (mixed)
RNA 1: B1 RNA 1
RNA 2: B9 RNA 2 with G31C, C32A, A33U, U35G, G42U, U44A, A45U, U46G
B12: target 1 C2A,C21A (mixed)
RNA 1: B1 RNA 1
RNA 2: B2 RNA 2 with C31A, C33U, U43A, C50A
B13: target 1 insC 3' of 10,insU 3' of 5 (mixed)
RNA 1: B1 RNA 1
RNA 2: GGGAAUGGAUCCACAUCUACGAAUUCGUACCAUAGAGAGGUUCAUCCGUCUCACCGAGAUCGGAAGAGCACACGU
B14: target 1 insU 3' of 21,insA 3' of 15 (mixed)
RNA 1: B1 RNA 1
RNA 2: B1 RNA 2 with G32U, G40A, U42G, A44U
B15: target 1 C2U,G17U (mixed)
RNA 1: B1 RNA 1
RNA 2: B2 RNA 2 with C33U, G35U, U43A, C50U
B16: target 1 insU 3' of 12,insA 3' of 8 (mixed)
RNA 1: B1 RNA 1
RNA 2: B13 RNA 2 with C43U, C46A, G48C, U49G
B17: target 1 C4A,G12U (mixed)
RNA 1: B1 RNA 1
RNA 2: B2 RNA 2 with C33U, G40U, U43A, C48A
B18: target 1 G13A,A14G (mixed)
RNA 1: B1 RNA 1
RNA 2: B2 RNA 2 with C33U, A38G, G39A, U43A
B19: target 1 insU 3' of 9,insG 3' of 7 (mixed)
RNA 1: B1 RNA 1
RNA 2: B13 RNA 2 with C43A, A44U, C47G, G48C, U49G
B20: target 1 insC 3' of 17,insU 3' of 6 (mixed)
RNA 1: B1 RNA 1
RNA 2: B13 RNA 2 with A36C, G37A, A38G, G39A, U41G, C43U, G48U, U49G
B21: target 1 insC 3' of 20,insG 3' of 11 (mixed)
RNA 1: B1 RNA 1
RNA 2: B1 RNA 2 with G32A, A33C, U43G, A44U
B22: target 1 insA 3' of 19,insA 3' of 17 (mixed)
RNA 1: B1 RNA 1
RNA 2: B9 RNA 2 with G31C, C32A, A33U, U35A, A36G, G37A
B23: target 1 insA 3' of 5,insG 3' of 4 (mixed)
RNA 1: B1 RNA 1
RNA 2: B13 RNA 2 with C43A, A44U, U45C, C47G, G48A, U49C, C50G
B24: target 1 insU 3' of 21,insU 3' of 4 (mixed)
RNA 1: B1 RNA 1
RNA 2: B1 RNA 2 with G32U, A45U, U46C, C48G, G49C, C50U
B25: target 1 insC 3' of 11,insC 3' of 10 (mixed)
RNA 1: B1 RNA 1
RNA 2: B13 RNA 2 with U42C, C43U, A44C, U45A, C46U, G48C, U49G
B26: target 1 G13A,C21U (mixed)
RNA 1: B1 RNA 1
RNA 2: B2 RNA 2 with C31U, C33U, G39A, U43A
B27: target 1 insC 3' of 17,insC 3' of 11 (mixed)
RNA 1: B1 RNA 1
RNA 2: B1 RNA 2 with G32A, A33U, U34A, A35G, G36C, U43C, A44U
B28: target 1 insA 3' of 12,insU 3' of 2 (mixed)
RNA 1: B1 RNA 1
RNA 2: B13 RNA 2 with U41A, C43U, U49C, C50U, U51C, C52U
B29: target 1 insG 3' of 16,insC 3' of 12 (mixed)
RNA 1: B1 RNA 1
RNA 2: B1 RNA 2 with G32A, A33U, U34A, A35G, G36A, A37G, U42C, A44U
B30: target 1 insA 3' of 21,insA 3' of 5 (mixed)
RNA 1: B1 RNA 1
RNA 2: B1 RNA 2 with G32A, A45U, U46C, C48G, G49A
B31: target 1 C4G,G12A (mixed)
RNA 1: B1 RNA 1
RNA 2: B2 RNA 2 with C33U, G40A, U43A, C48G
B32: target 1 insC 3' of 22,insU 3' of 15 (mixed)
RNA 1: B1 RNA 1
RNA 2: B1 RNA 2 with G32C, A39U, G40A, U42G, A44U
B33: target 1 insU 3' of 13,insU 3' of 1 (mixed)
RNA 1: B1 RNA 1
RNA 2: B13 RNA 2 with G40U, U41G, C43U, U49C, C50U, U51C, C52A, A53U
B34: target 1 insA 3' of 17,insA 3' of 8 (mixed)
RNA 1: B1 RNA 1
RNA 2: B1 RNA 2 with G32A, A33U, U34A, A35G, G36A, A45U, U46A

Target: T1, EsCas13d, nuclease-dead
Assay: crRNA (strand 1, pre-loaded); Mg2+; 40 mM Tris-HCl pH 7.5, 150 mM NaCl, 6 mM MgCl2, 1 mM DTT, 0.1% Tween-20, 0.2 mg/ml BSA; 25 C; 10 min per concentration, then washed
Conditions: tags: His6-TwinStrep-SUMO cleaved; N-terminal SNAP kept (SNAP-Surface 488); label: 3' end held by stalled T7 RNA polymerase

Binder | Kd
B1 | 84 ± 24 nM
B2 | 26.3 ± 2.9 nM
B3 | 5.6 ± 0.7 nM
B4 | 11.4 ± 0.4 nM
B5 | 32.2 ± 3.2 nM
B6 | 56 ± 13 nM
B7 | 13.4 ± 2 nM
B8 | 15.3 ± 0.7 nM
B9 | 27.4 ± 2.6 nM
B10 | 70 ± 13 nM
B11 | 5.4 ± 0.5 nM
B12 | 38 ± 6 nM
B13 | 14 ± 2.4 nM
B14 | 18.5 ± 1.7 nM
B15 | 20.5 ± 2.4 nM
B16 | 12.3 ± 0.7 nM
B17 | 8.5 ± 1.3 nM

Binder | Kd
B18 | 17.2 ± 1.6 nM
B19 | 10.6 ± 0.5 nM
B20 | 64 ± 8 nM
B21 | 6.6 ± 0.5 nM
B22 | 37 ± 5 nM
B23 | 6.6 ± 0.6 nM
B24 | 21.8 ± 1 nM
B25 | 29 ± 4 nM
B26 | 7.8 ± 0.7 nM
B27 | 80 ± 26 nM
B28 | 40 ± 5 nM
B29 | 47 ± 13 nM
B30 | 14.3 ± 0.9 nM
B31 | 3.39 ± 0.29 nM
B32 | 29 ± 10 nM
B33 | 14.8 ± 1.7 nM
B34 | 16.1 ± 1.2 nM
